This passage reports protein stability index results from the supplement of paper PMC10567573.

B1: FAM164A (parent)
chain: YDPDYIQCPYCQRRFNENAADRHI
B2: ALDH8A1 (parent)
chain: WSSRSPQERSRVLNQVADLLEQSL
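Further: lentivirally expressed fusions sorted by FACS into six bins by GFP to DsRed ratio, PSI derived from sequencing read proportions per bin multiplied by bin number.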

Variants of B1 are the subject of the first series. The series is described as follows: protein stability index of a GFP-peptide fusion (GPS, HEK-293T) (PSI 1-6); higher = more stable. The note with it: c terminus: a fixed tail appended.
YDKDYIQCPYCQRRFNENAADRHI [P3K]: the protein stability index was found to be 4.63.
Consider YDYDYIQCPYCQRRFNENAADRHI [P3Y], for which the protein stability index came out at 4.24.
Still for that read-out and setting: to YDADYIQCPYCQRRFNENAADRHI [P3A] belongs 4.57; to YDVDYIQCPYCQRRFNENAADRHI [P3V], 4.25; to YDHDYIQCPYCQRRFNENAADRHI [P3H], 3.81.
Same read-out and setting: to YDRDYIQCPYCQRRFNENAADRHI [P3R] belongs 4.49; to YDCDYIQCPYCQRRFNENAADRHI [P3C], 3.49.
In the case of YDDDYIQCPYCQRRFNENAADRHI [P3D], the protein stability index worked out at 4.01.
Turning to YDEDYIQCPYCQRRFNENAADRHI [P3E], the protein stability index amounted to 4.63.
Turning to YDSDYIQCPYCQRRFNENAADRHI [P3S], the protein stability index is 4.39.
Regarding YDNDYIQCPYCQRRFNENAADRHI [P3N], the protein stability index stood at 4.46.
Turning to YDWDYIQCPYCQRRFNENAADRHI [P3W], the protein stability index was 3.5.
Turning to YDQDYIQCPYCQRRFNENAADRHI [P3Q], the protein stability index is 3.86.
On to YDLDYIQCPYCQRRFNENAADRHI [P3L], for which the protein stability index is 3.55.
On to YDMDYIQCPYCQRRFNENAADRHI [P3M], for which the protein stability index is 4.4.
As for YDGDYIQCPYCQRRFNENAADRHI [P3G], the protein stability index was 4.67.
As to YDTDYIQCPYCQRRFNENAADRHI [P3T], the protein stability index came to 4.65.
With YDFDYIQCPYCQRRFNENAADRHI [P3F], the protein stability index was 4.02.
Turning to YDIDYIQCPYCQRRFNENAADRHI [P3I], the protein stability index amounted to 3.99.
For the variant ADPDYIQCPYCQRRFNENAADRHI [Y1A], the protein stability index stood at 4.73.
In the case of MDPDYIQCPYCQRRFNENAADRHI [Y1M], the protein stability index worked out at 4.24.
Consider QDPDYIQCPYCQRRFNENAADRHI [Y1Q], for which the protein stability index was 4.55.
In the case of DDPDYIQCPYCQRRFNENAADRHI [Y1D], the protein stability index amounted to 4.86.
Turning to EDPDYIQCPYCQRRFNENAADRHI [Y1E], the protein stability index turned out to be 5.12.
The same measure, in the same setting: the value for HDPDYIQCPYCQRRFNENAADRHI [Y1H] was 4.29; that for VDPDYIQCPYCQRRFNENAADRHI [Y1V] was 4.4; that for CDPDYIQCPYCQRRFNENAADRHI [Y1C] was 3.69.
Consider IDPDYIQCPYCQRRFNENAADRHI [Y1I], for which the protein stability index came to 4.72.
Same read-out and setting: the value for GDPDYIQCPYCQRRFNENAADRHI [Y1G] was 4.17.
Consider FDPDYIQCPYCQRRFNENAADRHI [Y1F], for which the protein stability index was 3.42.
Turning to LDPDYIQCPYCQRRFNENAADRHI [Y1L], the protein stability index was found to be 4.6.
The same measure, in the same setting: the value for TDPDYIQCPYCQRRFNENAADRHI [Y1T] was 4.79.
Same read-out and setting: the value for RDPDYIQCPYCQRRFNENAADRHI [Y1R] was 3.98.
On the same count and under the same terms, to PDPDYIQCPYCQRRFNENAADRHI [Y1P] belongs 4.54; to SDPDYIQCPYCQRRFNENAADRHI [Y1S], 4.54.
Take KDPDYIQCPYCQRRFNENAADRHI [Y1K]: the protein stability index was 4.41.
Still for that read-out and setting: the value for NDPDYIQCPYCQRRFNENAADRHI [Y1N] was 4.45; that for WDPDYIQCPYCQRRFNENAADRHI [Y1W] was 4.69.
On to YDPKYIQCPYCQRRFNENAADRHI [D4K], for which the protein stability index turned out to be 4.11.
On the same count and under the same terms, to YDPHYIQCPYCQRRFNENAADRHI [D4H] belongs 4.5; to YDPMYIQCPYCQRRFNENAADRHI [D4M], 3.8; to YDPGYIQCPYCQRRFNENAADRHI [D4G], 4.28.
Still for that read-out and setting: the value for YDPRYIQCPYCQRRFNENAADRHI [D4R] was 3.53.
YDPFYIQCPYCQRRFNENAADRHI [D4F]: the protein stability index was determined as 3.72.
On the same count and under the same terms, the value for YDPNYIQCPYCQRRFNENAADRHI [D4N] was 4.22; that for YDPIYIQCPYCQRRFNENAADRHI [D4I] was 4.5.
Still for that read-out and setting: to YDPPYIQCPYCQRRFNENAADRHI [D4P] belongs 4.08; to YDPEYIQCPYCQRRFNENAADRHI [D4E], 4.21; to YDPAYIQCPYCQRRFNENAADRHI [D4A], 4.26.
On to YDPLYIQCPYCQRRFNENAADRHI [D4L], for which the protein stability index was found to be 3.59.
On the same count and under the same terms, to YDPQYIQCPYCQRRFNENAADRHI [D4Q] belongs 4.42; to YDPCYIQCPYCQRRFNENAADRHI [D4C], 3.48.
For the variant YRPDYIQCPYCQRRFNENAADRHI [D2R], the protein stability index stood at 4.07.
As for YSPDYIQCPYCQRRFNENAADRHI [D2S], the protein stability index worked out at 2.59.
Same read-out and setting: to YFPDYIQCPYCQRRFNENAADRHI [D2F] belongs 3.52.
In the case of YHPDYIQCPYCQRRFNENAADRHI [D2H], the protein stability index was found to be 2.78.
Take YQPDYIQCPYCQRRFNENAADRHI [D2Q]: the protein stability index came out at 3.55.
Same read-out and setting: the value for YIPDYIQCPYCQRRFNENAADRHI [D2I] was 2.38; that for YYPDYIQCPYCQRRFNENAADRHI [D2Y] was 3.71.
Same read-out and setting: to YVPDYIQCPYCQRRFNENAADRHI [D2V] belongs 2.37; to YPPDYIQCPYCQRRFNENAADRHI [D2P], 3.64.
In the case of YNPDYIQCPYCQRRFNENAADRHI [D2N], the protein stability index was 4.26.
As for YLPDYIQCPYCQRRFNENAADRHI [D2L], the protein stability index turned out to be 2.69.
Consider YCPDYIQCPYCQRRFNENAADRHI [D2C], for which the protein stability index stood at 2.33.
On the same count and under the same terms, to YMPDYIQCPYCQRRFNENAADRHI [D2M] belongs 3.49; to YTPDYIQCPYCQRRFNENAADRHI [D2T], 2.33; to YEPDYIQCPYCQRRFNENAADRHI [D2E], 4.93.
Same read-out and setting: the value for YGPDYIQCPYCQRRFNENAADRHI [D2G] was 3.96.
Still for that read-out and setting: to YKPDYIQCPYCQRRFNENAADRHI [D2K] belongs 4.37.
YAPDYIQCPYCQRRFNENAADRHI [D2A]: the protein stability index turned out to be 2.46.
The same measure, in the same setting: the value for YWPDYIQCPYCQRRFNENAADRHI [D2W] was 3.42.

In a further series the parent is B2. The description is as above. The note with it: c terminus: a fixed tail appended.
As to WSSRSPQERSRVLNQVADLLEQSR [L24R], the protein stability index was 3.49.
Regarding WSSRSPQERSRVLNQVADLLEQSY [L24Y], the protein stability index was 1.86.
For the variant WSSRSPQERSRVLNQVADLLEQSQ [L24Q], the protein stability index turned out to be 3.4.
The same measure, in the same setting: the value for WSSRSPQERSRVLNQVADLLEQSN [L24N] was 2.96.
Take WSSRSPQERSRVLNQVADLLEQSV [L24V]: the protein stability index was determined as 2.29.
Same read-out and setting: to WSSRSPQERSRVCNQVADLLEQSL [L13C] belongs 3.11.
Still for that read-out and setting: to WSSRSPQERSRVGNQVADLLEQSL [L13G] belongs 3.46; to WSSRSPQERSRVLNQVADGLEQSL [L19G], 4.16.
For the variant WSSRSPQERSRVLNQVADRLEQSL [L19R], the protein stability index worked out at 3.98.
The same measure, in the same setting: to WSSRSPQERSRVLNQVADWLEQSL [L19W] belongs 2.24; to WSSRSPQERSRVLNQVADHLEQSL [L19H], 3.97; to WSSRSPQERSRVLNQVADCLEQSL [L19C], 3.14.
Still for that read-out and setting: the value for WSSRSPQERVRVLNQVADLLEQSL [S10V] was 2.05; that for WSSRSPQERMRVLNQVADLLEQSL [S10M] was 2.45; that for WSSRSPQERFRVLNQVADLLEQSL [S10F] was 1.24.
As for WSSRSPQERDRVLNQVADLLEQSL [S10D], the protein stability index is 3.14.
Same read-out and setting: the value for WSSRSPQERCRVLNQVADLLEQSL [S10C] was 2.36; that for WSSRSPQERSRVLNIVADLLEQSL [Q15I] was 2.07; that for WSSRSPQERSRVLNKVADLLEQSL [Q15K] was 2.13.
Same read-out and setting: to WSSRSPQERSRVLNCVADLLEQSL [Q15C] belongs 1.81; to WSSRSPQERSRVLNMVADLLEQSL [Q15M], 1.67.
WSSRSPQERSRVLNGVADLLEQSL [Q15G]: the protein stability index turned out to be 2.66.
Same read-out and setting: the value for WSSRSPQERSRVLNFVADLLEQSL [Q15F] was 1.54.
